{
  "source": "patent US20210054072A1",
  "about": "(ALLAKOS, published 2021)",
  "molecules": {"B1": {"name": "monoclonal antibody 8A2 (antibody, V domains shown)", "VH": "QVQLKESGPGLVAPSQSLSITCTVSGFSLTTYGVDWVRQFPGKGLEWLGVIWGGGNTNYNSALMSRLSISKDTSKSQVFLKMNSLQTDDTAMYYCAKHKGTSHAMEYWGQGTSVTVSS", "VL": "QIVLTQSPAIMSASPGEKVTMTCSASSRVIFMYWYQQKPGSSPRLLIYDTSNLASGVPVRFSGGGSGTSYSLTISRMEAEDAATYYCQQWSSYPPTFGAGTKLELK"}, "B2": {"name": "monoclonal antibody 3F1 (antibody, V domains shown)", "VH": "EFQLQQSGPEMVKPGASVKMSCKASGDSFTDYKINWVKQNNGKSLEWIGVINPDSGTTSYNQIFEGKATLTVDQSSSTAYMQVNRLTSEDSAVYYCTTWDDYSFYAMDYWGQGTSVTVSS", "VL": "DVLMTQTPLSLPVSLGDQASISCRSSQNIVHSNGNTYLEWFLQKPGQSPKLLIYKVSNRFSGVPDRFSGSGSGTDFTLKISRVEAEDLGVYYCFQGSHIPWTFGGGTKLEIK"}, "B3": {"name": "monoclonal antibody 16H11 (antibody, V domains shown)", "VH": "QVQLHQSGAELVKPGASVKISCKGSGYDFSNFWMNWVKQRPGKGLEWIGQIYPGDGEIKYNGKFKGKATLTADESSSTAYIHLSSLTSEDSAVYFCARDDYLRAMDYWGQGTSVTVSS", "VL": "DIQMTQSPASLSASVGETVTITCRASGNIHNYLAWFQQKQGKSPHFLVYSAKALADGVPSRFSGSGSGTQYSLKINSLQPEDFGTYYCQHFWSSPYTFGGGTKLEIK"}, "B4": {"name": "5215-9 (antibody, V domains shown)", "VH": "EVQLQQSGAELVKSGASVKLSCTASGFNIKDTYMHWVKQRPEKGLEWIGWIDPADGHTKYDPKFQGKATITADTSSNTAYLHLSSLTSEDAAVYYCPRGGSSPYFDYWGQGTTLTVSS", "VL": "DIVLTQSPASLTISLGQRATISCRASQSVSTSTYSYIHWYQQKPGQPPKLLIKYASNLASGVPARFSGSGSGTDFSLSIHPMEEEDTATYYCQHSWKIPFTFGSGTKLEIK", "notes": "anti-Siglec-7 monoclonal antibody of the panel"}, "B5": {"name": "5215-2 (antibody, V domains shown)", "VH": "DVQLQESGPGLVKPSQSLSLTCTVTGYSITSDYVWTWIRQFPGNKLEWMGYITYSDSTNYNPSLKSRLSITRDTSKNQFFLQLSSVTTEDTATYFCARSLTGNYFDYWGQGTTLTVSS", "VL": "VIVLTQSPASLEVSLGQRATISCRASQTVRISSYSYMNWYQQKPGQPPKLLIKYASNLESGVPARFSGSGSGTDFTLNIHPVEEEDTATYYCQHSWKIPTFGGGTKLEIK", "notes": "as for B4"}, "B6": {"name": "5215-13 (antibody, V domains shown)", "VH": "EVQLQQSGAELVKPGASVKLSCTVSGFNFKDTYIHWVKQRPEQGLEWIGRIDPANGNTKYASKFQDKATITADTSSNTVYMQLSSLTSEDTAVYYCTRGWDGYYFDCWGQGTTLTVSS", "VL": "DIVLTQSPASLVVSLGLRATISCRASQSVSTSSHSYLHWYQQKPGQPPKLLIKYASNLASGVPARFSGSGSGADFTLNIHPVEEEDTATYYCQHSWEIPYTFGGGTKLEIK", "notes": "as for B4"}},
  "key": {"Siglec-7-ECD [1]": {"molecular_target": "T1, Siglec-7-ECD (human, UniProt Q9Y286 19-353)", "T1 construct": "also called p75; AIRM", "T1 sequence (Q9Y286 19-353 limits assumed)": "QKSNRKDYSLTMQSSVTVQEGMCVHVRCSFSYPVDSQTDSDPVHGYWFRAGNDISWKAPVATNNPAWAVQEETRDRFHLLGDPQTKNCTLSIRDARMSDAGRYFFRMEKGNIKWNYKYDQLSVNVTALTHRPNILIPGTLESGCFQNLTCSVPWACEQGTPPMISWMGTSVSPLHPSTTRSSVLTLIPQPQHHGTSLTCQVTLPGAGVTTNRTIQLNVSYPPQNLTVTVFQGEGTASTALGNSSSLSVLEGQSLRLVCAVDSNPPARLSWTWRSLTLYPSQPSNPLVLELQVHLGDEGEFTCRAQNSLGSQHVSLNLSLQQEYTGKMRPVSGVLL", "test": "bio-layer interferometry (ForteBio), 25 C, antibody captured on the sensor, Siglec-7-ECD as analyte 50 to 1.56 nM, 1:1 global fit; the same value stands beside the sensorgrams ('QA79 KD=706pM', four traces up to about 0.16 nm, visible dissociation to 780 s)"}, "Siglec-7-ECD-Fc": {"molecular_target": "T2, Siglec-7-ECD-Fc (human, UniProt Q9Y286 19-353)", "T2 construct": "also called recombinant Siglec-7-Fc; Siglec-7-ECD-huFc; not shown: human Fc (huFc)", "T2 sequence (Q9Y286 19-353)": "as the sequence (Q9Y286 19-353 limits assumed) above", "test": "ligand blocking assay, flow cytometry: antibody (40 nM to 40 pM) mixed with 10 nM Siglec-7-ECD-Fc; blocked: binding of Siglec-7-ECD-Fc to its ligands on A375 melanoma cells", "description": "Recombinant Siglec-7-Fc was added to A375 cells in the presence of anti-Siglec-7 antibodies at increasing concentrations and binding of the complex was detected on the cell surface.\nHuman melanoma cell line A375, which expresses high level of ligands for Siglec-7, was used to determine the blocking activity of anti-Siglec-7 antibodies in a cell based assay. Two-fold serial dilutions of anti-Siglec-7 antibodies (40 nM to 40 pM) were combined with 10 nM Siglec-7-ECD-Fc in FACS buffer (PBS/2% BSA) and incubated on ice for 30 minutes. 2.5×10e4 A375 cells per well were added to round bottom 96-well tissue culture plates in FACS buffer, plates were centrifuged at 400 g for 2 min, supernatant was removed and cells were re-suspended in 100 ul of the antibody-Siglec-7 complexes. After a 1 hour incubation on ice, cells were washed twice and incubated for 30 minutes with goat anti-human F(ab′)2 fragment conjugated to AF647 (Jackson IR labs) at 1 ug/ml in FACS buffer. After two more washes, cells were fixed in PBS/2% PFA and acquired on a Novocyte flow cytometer (ACEA biosciences). IC₅₀ values for blocking were determined based on plotting mean fluorescence in the APC channel and analysis using Prism Graphpad software."}, "Siglec-7-ECD [2]": {"molecular_target": "T1, Siglec-7-ECD", "test": "bio-layer interferometry (ForteBio), 25 C, antibody captured on the sensor, Siglec-7-ECD as analyte 50 to 1.56 nM, 1:1 global fit", "description": "Antibody binding analysis was carried out by bio-layer interferometry (ForteBio). […] Antibodies were captured on anti-mouse kinetic sensors at 0.5 ug/mL; Siglec-7-ECD was used as analyte and diluted in assay buffer from 50 nM to 1.56 nM with 2× dilutions. Two-minute associations were conducted, followed by 10-minute dissociations. Results were determined relative to a control empty reference AHC sensor, and analyzed using ForteBio analysis software with 1:1 global fit parameters."}, "[3]": {"molecular_target": "Siglec-7 on primary human NK cells (human, UniProt Q9Y286 19-467)", "sequence (Q9Y286 19-467 limits assumed)": "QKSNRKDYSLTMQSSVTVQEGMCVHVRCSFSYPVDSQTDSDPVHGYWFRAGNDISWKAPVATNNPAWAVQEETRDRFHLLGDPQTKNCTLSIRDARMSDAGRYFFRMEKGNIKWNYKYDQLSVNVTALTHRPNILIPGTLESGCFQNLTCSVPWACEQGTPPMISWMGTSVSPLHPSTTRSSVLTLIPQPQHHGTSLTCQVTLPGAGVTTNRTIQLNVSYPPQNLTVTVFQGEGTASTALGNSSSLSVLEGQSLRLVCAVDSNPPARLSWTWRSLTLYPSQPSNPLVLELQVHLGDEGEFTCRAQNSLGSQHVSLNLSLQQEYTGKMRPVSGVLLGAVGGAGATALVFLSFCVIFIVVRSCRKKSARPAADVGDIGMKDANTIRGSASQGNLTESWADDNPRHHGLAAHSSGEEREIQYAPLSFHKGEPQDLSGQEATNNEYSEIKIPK", "test": "cell-based or functional assay"}},
  "data": [
    {"molecule": "anti-Siglec-7 antibody QA79", "values": [
      {"measurement": "Kd", "setting": "Siglec-7-ECD [1]", "value": 0.706, "unit": "nM"},
      {"measurement": "IC50", "setting": "Siglec-7-ECD-Fc", "value": 7.49, "unit": "nM"}
    ]},
    {"molecule": "anti-Siglec-7 antibody Z176", "values": [
      {"measurement": "Kd", "setting": "Siglec-7-ECD [2]", "value": 0.086, "unit": "nM"}
    ]},
    {"molecule": "anti-Siglec-7 antibody S7.7", "values": [
      {"measurement": "Kd", "setting": "Siglec-7-ECD [2]", "value": 0.422, "unit": "nM"},
      {"measurement": "IC50", "setting": "Siglec-7-ECD-Fc", "value": 4.26, "unit": "nM"}
    ]},
    {"molecule": "B1", "values": [
      {"measurement": "IC50 (read off the curve), internalization of Siglec-7", "setting": "[3]", "value": "~0.01", "unit": "nM"}
    ]},
    {"molecule": "B2", "values": [
      {"measurement": "IC50 (read off the curve), internalization of Siglec-7", "setting": "[3]", "value": "~0.01", "unit": "nM"}
    ]},
    {"molecule": "B3", "values": [
      {"measurement": "IC50 (read off the curve), internalization of Siglec-7", "setting": "[3]", "value": "~0.01", "unit": "nM"}
    ]},
    {"molecule": "B4", "values": [
      {"measurement": "Kd", "setting": "Siglec-7-ECD [2]", "value": 0.001, "unit": "nM"},
      {"measurement": "IC50", "setting": "Siglec-7-ECD-Fc", "value": 5.33, "unit": "nM"}
    ]},
    {"molecule": "B5", "values": [
      {"measurement": "Kd", "setting": "Siglec-7-ECD [2]", "value": 0.149, "unit": "nM"},
      {"measurement": "IC50", "setting": "Siglec-7-ECD-Fc", "value": 4.12, "unit": "nM"}
    ]},
    {"molecule": "B6", "values": [
      {"measurement": "Kd", "setting": "Siglec-7-ECD [2]", "value": 0.99, "unit": "nM"},
      {"measurement": "IC50", "setting": "Siglec-7-ECD-Fc", "value": 1.32, "unit": "nM"}
    ]}
  ]
}
